Data set [1] deals with T1, Flagellin Modification Protein (FlmG) from Caulobacter crescentus (Caulobacter crescentus, UniProt P21296 1-596).
T1 construct: Natural full-length glycosyltransferase, expressed in cells (C. crescentus, S. fredii NGR234, E. coli); It has an N-terminal TPR domain and a C-terminal GT-B-like glycosyltransferase domain; also called FlbA; CC_1457
T1 sequence: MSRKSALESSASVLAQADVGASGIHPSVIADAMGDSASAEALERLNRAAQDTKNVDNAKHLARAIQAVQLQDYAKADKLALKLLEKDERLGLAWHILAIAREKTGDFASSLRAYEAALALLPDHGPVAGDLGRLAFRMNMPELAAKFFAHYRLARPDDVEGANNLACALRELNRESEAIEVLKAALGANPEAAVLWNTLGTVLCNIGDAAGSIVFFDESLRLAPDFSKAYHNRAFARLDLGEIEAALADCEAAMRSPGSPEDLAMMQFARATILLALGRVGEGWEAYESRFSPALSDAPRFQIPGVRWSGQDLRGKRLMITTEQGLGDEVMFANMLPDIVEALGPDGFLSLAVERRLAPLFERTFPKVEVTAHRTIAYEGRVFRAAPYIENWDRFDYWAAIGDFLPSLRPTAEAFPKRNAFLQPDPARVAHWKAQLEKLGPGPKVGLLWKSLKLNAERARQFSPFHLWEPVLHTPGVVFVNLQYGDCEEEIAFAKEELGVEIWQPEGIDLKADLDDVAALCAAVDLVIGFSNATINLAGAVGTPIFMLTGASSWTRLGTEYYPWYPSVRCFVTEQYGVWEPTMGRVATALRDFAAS
The data set is described as follows: summary of example 1 (BACTH and domain analysis).

Data set [2] addresses T2, FljK flagellin protein from Caulobacter crescentus.
T2 chain: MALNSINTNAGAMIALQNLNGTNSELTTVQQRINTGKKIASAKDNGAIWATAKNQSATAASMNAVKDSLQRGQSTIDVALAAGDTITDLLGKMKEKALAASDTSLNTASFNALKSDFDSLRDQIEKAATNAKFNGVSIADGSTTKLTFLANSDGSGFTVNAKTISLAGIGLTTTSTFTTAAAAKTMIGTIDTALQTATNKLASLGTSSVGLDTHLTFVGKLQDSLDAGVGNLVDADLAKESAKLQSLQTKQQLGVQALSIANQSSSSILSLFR

The values that follow come from patent US20240035036A1 (UNIVERSITE DE GENEVE, published 2024).

B1: FljK flagellin protein from Caulobacter crescentus (other)
chain: T2 chain
notes: In the glycosylation experiments it was expressed unfused in cells; also called CC_1461
Turning to B1, the binding result in data set [1] is “binds”.

B2: Flagellin Modification Protein (FlmG) from Caulobacter crescentus (protein)
chain: T1 sequence
For B2, in data set [2], the “FljK glycosylation (migration on anti-FljK immunoblot) in E. coli co-expressing FljK, FlmG and the synthetic flm operon” value is “in the presence of pUCITD-flm FljK migration is shifted towards higher molecular weight, as in Caulobacter crescentus wild-type (WT) cells”; the “flagellin modification (SDS-PAGE mobility shift of FljK by immunoblot) on co-expression in S. fredii NGR234” value is on record as “upon co-expression of FlmG, FljK shifted to a species with higher molecular mass”.
